Laboratory results from patent US20200332017A1 (SALUBRIS CHENGDU BIOTECH, published 2020).

Tests used:
[1] = target: T1, human CD40-Fc protein (amino acid residue 21-193 of SEQ ID NO: 67 linked to N-terminus of amino acid residue … (human, biotin-labeled in the capture ELISA and in the benchmark blocking ELISA; unlabeled when coated in the ligand blocking ELISA); assay: capture ELISA, biotin human CD40-Fc; mAb at 2000 ng/mL
T1 construct: also called biotin-labeled human CD40-Fc; human CD40-Fc-biotin
Protocol: (§1) Plates were washed 4 times with wash buffer (PBS+0.05% Tween-20, PBST) and then blocked with 200 μl/well blocking buffer (5% w/v non-fatty milk in PBST) for 2 hours at 37° C. […] After a final wash, plates were incubated with 100 μl/well ELISA substrate TMB (Innoreagents, Cat # TMB-S-002). The reaction was stopped in 15 minutes at 25° C. with 50 μl/well 1M H₂SO₄, and the absorbance was read at 450 nm and plotted against antibody concentration. Data were analyzed using Graphpad Prism software and EC₅₀ values were reported.

[2] = target: T2, full length human CD40 (uniprot # P25942-1) on the membrane of 293T-CD40 cells (human, UniProt P25942 21-277); assay: flow cytometry on 293T-CD40 cells, PE-labeled secondary antibody, MFI
T2 construct: also called cell surface CD40
Protocol: 2×10⁵ cells per well in 96 well-plates were incubated with the mouse anti-CD40 antibodies or the controls of various concentrations in FACS buffer for 40 minutes on ice. […] Following an incubation of 40 minutes at 4° C. in dark, cells were washed three times and resuspended in FACS buffer. Fluorescence was measured using a Becton Dickinson FACS Canto II-HTS equipment and plotted against antibody concentration.

[3] = target: T1, human CD40-Fc protein (amino acid …); assay: capture ELISA, biotin human CD40-Fc; mAb at 0.64 ng/mL
Protocol: as §1

[4] = target: T1, human CD40-Fc protein (amino acid …); assay: capture ELISA, biotin human CD40-Fc; mAb at 10000 ng/mL
Protocol: as §1

[5] = target: T1, human CD40-Fc protein (amino acid …); assay: benchmark blocking ELISA: BM2 (Selicrelumab) coated as competitor, antibody titrated in biotin-labeled human CD40-Fc solution, streptavidin-HRP, OD(450-630)
Protocol: (§2) The ability of the mouse anti-CD40 antibodies of the present invention to block the binding of the Benchmark to human CD40 was measured using a competitive ELISA assay. […] The next day, plates were washed with wash buffer, and blocked with 5% w/v non-fatty milk in PBST for 2 hours at 37° C. Plates were then washed again using wash buffer. […] After incubation at 37° C. for 40 minutes, plates were washed 4 times using wash buffer. Then streptavidin conjugated HRP was added and incubated for 40 minutes at 37° C. to detect biotin-labeled human CD40-Fc bound to plates. Plates were washed again using wash buffer. Finally, TMB was added and the reaction was stopped using 1M H₂SO₄, and the absorbance was read at 450 nm. Data were analyzed using Graphpad Prism software and IC₅₀ values were reported.

[6] = target: T1, human CD40-Fc protein (amino acid …); assay: capture ELISA, biotin human CD40-Fc; mAb at 0 ng/mL (blank)
Protocol: as §1

[7] = target: T3, Human CD40-his protein (Acro biosystems, Cat # CD0-H5228) (human, UniProt P25942 21-193); assay: SPR, Biacore; human CD40-his
T3 construct: Bought reagent; not shown: his tag
Source text: (§3) Briefly, goat anti-mouse IgG (GE healthcare, Cat # BR100838, Mouse Antibody Capture Kit) was covalently linked to a CM5 or a Protein G chip (carboxy methyl dextran coated chip) via primary amines, using a standard amine coupling kit provided by Biacore (GE healthcare, Pittsburgh, Pa., USA). Un-reacted moieties on the biosensor surface were blocked with ethanolamine. […] Then, human CD40-his (Acro biosystems, Cat # CD0-H5228) or cynomolgus monkey CD40-his protein (Acro biosystems, Cat # CD0-052H6) in HBS EP buffer (provided by Biacore) was flowed onto the chip at a flow rate of 30 μL/min. The antigen-antibody association kinetics was followed for 2 minutes and the dissociation kinetics was followed for 10 minutes. The association and dissociation curves were fit to a 1:1 Langmuir binding model using BIA evaluation software.

[8] = target: T4, cynomolgus monkey CD40-his protein (Acro biosystems, Cat # CD0-052H6) (cynomolgus monkey, UniProt G7PG38 21-193); assay: SPR, Biacore; cynomolgus CD40-his
T4 construct: Bought reagent; also called Cynomolgus CD40-his
Source text: as §3

[9] = target: T1, human CD40-Fc protein (amino acid …); assay: competitive ELISA; coated human CD40-Fc, competitor biotin human CD40L-his
Protocol: Serially diluted the mouse anti-CD40 antibodies of the present invention or the controls (starting at 200 nM with a four-fold serial dilution) in 2.5% w/v non-fatty milk in PBST were prepared to the plates and incubated with the human CD40-Fc proteins at room temperature for 40 minutes. […] Plates were washed again. 100 μl/well of streptavidin conjugated HRP was added and incubated for 40 minutes at 37° C. Plates were washed again using wash buffer. Finally, TMB was added and the reaction was stopped using 1M H₂SO₄, and the absorbance was read at 450 nm. Data were analyzed using Graphpad Prism software and IC₅₀ values were reported.

[10] = target: T4, cynomolgus monkey CD40-his protein …; assay: SPR, Biacore T200; antibody captured, antigen flowed; 1:1 Langmuir fit
Source text: as §3

[11] = target: T1, human CD40-Fc protein (amino acid …); assay: competitive ELISA; biotin human CD40-Fc in solution, competitor coated BM2
Protocol: as §2

B1: mouse anti-CD40 monoclonal antibody C1C1 (antibody, V domains shown)
VH: EVKLVESGGGLVKPGASLKLSCAASGFTFSNYGMSWVRQNSDKRLEWVASISSGGDDTYYPDNVKGRCTISRENAKNTLYLEMSSLKTEDTALYYCTRAGGKAMDYWGQGTSVTVST
VL: DIVLTQSPATLSVIPGNSVSLSCRASQSIRDNLHWYQQKSHESPRLLINYASQSISGIPSRFSGSGSGTDFTLTINSVETEDFGIYFCQQFNSWPLTFGGGTKLELK
notes: those are used here for the chimeric antibody only; also called Mouse C1C1; mouse C1C1
absorbance at 450 nm [1]: 1.75 OD450 | EC50 (read off the curve) [2]: ~0.3 µg/mL | absorbance at 450 nm [3]: 0.142 OD450 | absorbance at 450 nm [4]: 1.81 OD450 | IC50 (read off the curve) [5]: ~0.5 nM | absorbance at 450 nm [6]: 0.124 OD450 | Kd [7]: 3.62 nM | Kd [8]: 2.35 nM | IC50 [9]: 5.4 nM | Kd [10]: 0.486 nM | koff [10]: 0.00119 s⁻¹ | kon [10]: 2.45e+06 M⁻¹ s⁻¹ | IC50 [11]: 0.461 nM

B2: chimeric antibody C1C1 (antibody, human IgG1, kappa, V domains shown)
VH: B1 VH
VL: DIVLTQSPATLSVIPGNSVSLSCRASQSIRDNLHWYQQKSHESPRLLINYASQSISGIPSRFSGSGSGTDFTLTINSVETEDFGIYFCQQFNSWPLTFGGGTKLELKR
notes: also called chC1C1; chimeric C1C1
absorbance at 450 nm [1]: 1.83 OD450 | EC50 (read off the curve) [2]: ~0.3 µg/mL | absorbance at 450 nm [3]: 0.035 OD450 | absorbance at 450 nm [4]: 1.96 OD450 | IC50 (read off the curve) [5]: ~0.02 µg/mL | absorbance at 450 nm [6]: 0.028 OD450 | Kd [7]: 5.98 nM | Kd [8]: 2.34 nM | IC50 [9]: 4.83 nM | IC50 [11]: 0.126 nM
